The results in this text go back to patent publication US20250092106A1 (University of California, published 2025).

A word on the Kd: it is the concentration at which binding is half-saturated.

In the assay the target is T1, Recombinant soluble integrin αvβ3 (UniProt P06756 31-992; P05106 27-718).
T1 construct: Soluble heterodimer made 'as described [22]'; also called soluble αvβ3; αvβ3 protein
The assay is described as follows: SPR; soluble αvβ3 immobilized on CM5 chip, HBD as analyte, 1 mM Mn2+.

T1 sequence (P06756 31-992, chain 1 of 2): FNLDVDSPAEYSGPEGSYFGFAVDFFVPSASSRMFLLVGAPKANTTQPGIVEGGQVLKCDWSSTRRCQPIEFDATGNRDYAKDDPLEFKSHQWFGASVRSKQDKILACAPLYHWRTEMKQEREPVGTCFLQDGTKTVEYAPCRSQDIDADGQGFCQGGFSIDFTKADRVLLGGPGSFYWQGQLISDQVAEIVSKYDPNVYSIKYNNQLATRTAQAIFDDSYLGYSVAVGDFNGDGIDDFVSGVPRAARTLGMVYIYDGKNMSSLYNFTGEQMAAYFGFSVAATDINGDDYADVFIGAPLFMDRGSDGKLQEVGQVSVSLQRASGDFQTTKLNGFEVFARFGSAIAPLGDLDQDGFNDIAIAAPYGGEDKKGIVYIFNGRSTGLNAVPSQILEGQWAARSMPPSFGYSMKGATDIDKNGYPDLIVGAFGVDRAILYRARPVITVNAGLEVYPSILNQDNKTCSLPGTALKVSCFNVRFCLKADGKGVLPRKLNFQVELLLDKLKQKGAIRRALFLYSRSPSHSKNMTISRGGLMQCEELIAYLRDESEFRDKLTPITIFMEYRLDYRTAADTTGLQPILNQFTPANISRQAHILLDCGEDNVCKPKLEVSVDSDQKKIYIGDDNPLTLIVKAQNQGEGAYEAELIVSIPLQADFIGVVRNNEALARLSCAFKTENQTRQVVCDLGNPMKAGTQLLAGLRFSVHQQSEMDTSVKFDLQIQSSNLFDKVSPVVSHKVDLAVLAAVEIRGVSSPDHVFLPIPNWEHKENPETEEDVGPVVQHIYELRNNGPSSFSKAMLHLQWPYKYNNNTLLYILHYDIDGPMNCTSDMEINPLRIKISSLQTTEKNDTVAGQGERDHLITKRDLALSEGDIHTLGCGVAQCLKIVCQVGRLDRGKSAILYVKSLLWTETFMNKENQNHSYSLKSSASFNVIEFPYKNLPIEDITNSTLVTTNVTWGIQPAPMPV
T1 sequence (P05106 27-718, chain 2 of 2): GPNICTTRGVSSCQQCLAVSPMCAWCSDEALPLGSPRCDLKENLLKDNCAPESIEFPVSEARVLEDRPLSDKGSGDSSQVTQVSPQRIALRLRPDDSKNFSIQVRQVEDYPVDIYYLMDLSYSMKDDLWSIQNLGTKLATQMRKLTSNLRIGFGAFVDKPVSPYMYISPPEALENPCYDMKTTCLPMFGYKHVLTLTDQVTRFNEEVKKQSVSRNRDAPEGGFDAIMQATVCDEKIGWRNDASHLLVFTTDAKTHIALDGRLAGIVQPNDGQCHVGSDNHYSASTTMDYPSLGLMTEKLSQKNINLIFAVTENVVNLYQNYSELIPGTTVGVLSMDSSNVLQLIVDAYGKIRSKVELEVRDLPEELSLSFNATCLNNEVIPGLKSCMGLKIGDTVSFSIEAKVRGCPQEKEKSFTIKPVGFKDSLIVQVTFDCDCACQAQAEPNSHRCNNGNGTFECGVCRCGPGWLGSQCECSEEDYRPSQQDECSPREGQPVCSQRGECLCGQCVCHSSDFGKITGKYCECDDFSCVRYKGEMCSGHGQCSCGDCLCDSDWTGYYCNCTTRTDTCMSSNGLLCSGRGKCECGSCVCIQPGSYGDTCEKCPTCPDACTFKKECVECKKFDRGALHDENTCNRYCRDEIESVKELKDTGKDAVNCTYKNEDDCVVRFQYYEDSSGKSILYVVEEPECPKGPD

B1: VEGF165 heparin-binding domain (HBD, residues 111-165), wild type (ligand)
chain: QALARASGRGGRVARRGAEESGPPHSPSRRGSASRAGPGRASETMNFLLSWVHWS
Regarding B1, the equilibrium dissociation constant (Kd) was determined as 470 nM.
